Experimental data reported in patent US6319685A (Unigene Laboratories, Inc., priority 1987, dated 2001).
Residues, ends and D or L forms follow the SMILES beside them.

Key:
[1] = target: T1, alpha-amidating enzyme (Rattus norvegicus, UniProt P14925); assay: co-factor requirement of alpha-amidating enzyme for maximal activity; type: biochemical; conditions: in vitro, with peptide substrate, oxygen and L-ascorbic acid
T1 sequence (P14925 36-976): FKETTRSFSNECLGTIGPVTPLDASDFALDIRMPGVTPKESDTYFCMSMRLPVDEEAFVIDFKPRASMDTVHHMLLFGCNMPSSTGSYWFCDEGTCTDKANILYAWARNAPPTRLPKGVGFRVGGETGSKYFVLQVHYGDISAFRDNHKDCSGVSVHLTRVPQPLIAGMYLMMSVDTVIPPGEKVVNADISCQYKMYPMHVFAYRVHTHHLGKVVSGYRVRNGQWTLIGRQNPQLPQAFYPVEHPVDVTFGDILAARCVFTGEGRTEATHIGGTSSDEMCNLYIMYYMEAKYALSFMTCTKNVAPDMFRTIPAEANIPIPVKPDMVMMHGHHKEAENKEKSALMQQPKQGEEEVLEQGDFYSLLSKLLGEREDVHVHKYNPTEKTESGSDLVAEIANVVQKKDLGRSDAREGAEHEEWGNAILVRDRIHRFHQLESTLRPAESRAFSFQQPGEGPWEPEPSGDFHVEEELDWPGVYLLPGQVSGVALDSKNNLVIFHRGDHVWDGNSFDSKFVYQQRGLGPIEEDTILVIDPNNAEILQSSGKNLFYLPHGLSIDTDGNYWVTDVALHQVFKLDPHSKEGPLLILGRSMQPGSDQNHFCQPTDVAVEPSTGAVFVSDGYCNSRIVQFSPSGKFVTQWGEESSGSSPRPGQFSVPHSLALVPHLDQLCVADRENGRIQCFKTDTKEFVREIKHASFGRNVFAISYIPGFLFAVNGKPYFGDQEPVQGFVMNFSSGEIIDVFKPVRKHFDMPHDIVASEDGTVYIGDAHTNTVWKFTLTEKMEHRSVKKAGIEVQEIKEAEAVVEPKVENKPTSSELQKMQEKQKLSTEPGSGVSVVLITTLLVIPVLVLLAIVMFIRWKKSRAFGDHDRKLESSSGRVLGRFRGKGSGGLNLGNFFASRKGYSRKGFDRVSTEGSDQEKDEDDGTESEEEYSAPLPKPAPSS

[2] = target: T1, alpha-amidating enzyme; assay: comparison of assay systems / kinetic analysis of amidation of dansyl-Tyr-Val-Gly, D-Tyr-Val-Gly and 125I-D-Tyr-Val-Gly; type: biochemical
Description: (§1) I. Monodansyl L-Tyr-Val-Gly
(§2) The concentration of enzyme used in all experiments was left constant except where noted.
(§3) The reaction mixture for the conversion of the monodansyl substrate contained:
(§4) 5 μl of 100 ug/mL bovine pancreatic catalase
(§5) 5 μl containing 2 nmoles of substrate
(§6) The samples were prepared in duplicate and incubated at 37° C. for 10, 20 and 30 minutes time periods. The enzymatic reaction was halted by the addition of 10 ul 500 mM EDTA. Substrate and product were separated by RP HPLC using an Hewlett Packard-1090 liquid chromatography system, and quantitation was achieved using a HP-3392 integrator.
(§7) D-Tyr-Val-Gly and D-Tyr-Val-NH2 were iodinated using iodobeads from Pierce Chemical Company. The radiolabeied substrate and product were used to calibrate a sulfyl-propyl cation-exchange column. ^125 I D-Tyr-Val-Gly was added to 650 uM D-Tyr-Val-Gly and used as the substrate. The reaction mixture for the conversion of monodansyl substrate contained:
(§8) Samples were incubated for 10, 20, 30 minutes at 37° C. The reaction was stopped by addition of 500 mM EDTA. […] The conversion of radiolabeled substrate to product was linear with respect to time.
The reaction conditions used for the amidation of D-Tyr-Val-Gly are identical to those described for the dansyl and iodinated substrates. Substrate concentration in the reaction mixture was 650 uM. Separation of substrate and product is achieved by gradient elution on RP-HPLC using a HP-1090 liquid chromatography system. The column effluents were monitored at 280 nm. The level of sensitivity for this assay is much lower than that for either dansyl or iodinated substrates.
Furthermore, a somewhat more rigorous kinetic analysis has also been employed to compare the dansyl-Tyr-Val-Gly (Applicants') assay to the D-Tyr-Val-Gly (prior art) assay.

[3] = substrate: CC(C)[C@H](NC(=O)[C@H](N)Cc1ccc(O)cc1)C(=O)NCC(=O)O; assay: as above; type: biochemical, rat; conditions: 37.0 °C
Description: as §1, §2, §3, §4, §5, §6, §7, §8
The reaction conditions used for the amidation of D-Tyr-Val-Gly are identical to those described for the dansyl and iodinated substrates. Substrate concentration in the reaction mixture was 650 uM. […] The column effluents were monitored at 280 nm. […]

[4] = specific alpha-amidating activity, conversion of Dansyl-D-Tyr-Val-Gly to Dansyl-D-Tyr-Val-CONH2; type: biochemical
Description: These and other objects will become apparent from a thorough reading of the present disclosure. […] All specific activity units set forth herein are based upon the conversion of Dansyl-D-Try-Val-Gly-COOH to Dansyl-D-Tyr-Val-CONH2. One mU is defined as the amount of activity needed to convert one nanomole (nmole) of Dansyl-D-Tyr-Val-Gly-COOH to one nmole of Dansyl-D-Tyr-Val-CONH2 per minute at 37° C. and pH 7.0 in the presence of ascorbate ions at a concentration of 3 mM (based on total reaction mixture including enzyme, substrate, co-factors, etc.), molecular oxygen in a molar excess over substrate and a concentration of cupric ions effective to maximize activity (usually about 2 μM depending on the state of purity of the enzyme).
Each purification step can be monitored for both protein content and the level of alpha-amidation activity. This information is used to calculate the specific activity of the enzyme which serves as an indicator of the relative purity of the enzyme.
Sephacryl S-300 (Pharmacia) was equilibrated in 50 mM Tris HCl pH 7.0 and poured into a K 50/100 column (Pharmacia) according to the manufacturer's instructions. The bed volume of the column was approximately 1.3 liters. The Sample was loaded onto the column in a volume representing approximately 3 percent of the bed volume of the column. Proteins were eluted from the column in 50 mM Tris HCl pH 7.0 at a flow rate of approximately 2 ml per minute.
as §3
The samples were prepared in duplicate and incubated at 37° C. for 10, 20 and 30 minutes time periods. The enzymatic reaction was halted by the addition of 10 ul 500 mM EDTA.

[5] = pH optimum of alpha-amidating enzyme; type: biochemical; conditions: CA-77 cell tissue culture media enzyme
Description: 2. The optimum pH for the activity of the enzyme was determined to be pH 5.0-5.5 using N dansyl Tyr-Val-Gly as the substrate (FIG. XVI). However, due to the enhanced stability of the enzyme at neutral pH, it may be beneficial to carry out the amidation reaction at such pH.

Molecule: catalase
- effect of addition on enzymatic activity [1]: substantially increased

Molecule: ^125 I-D-Tyr-Val-Gly [125I-D-Tyr-Val-Gly]
- fractional conversion relative to dansyl-Tyr-Val-Gly ([2]; each time point (10, 20, 30 minutes), 37° C.): approximately 1.55 times

Molecule: CC(C)[C@H](NC(=O)[C@H](N)Cc1ccc(O)cc1)C(=O)NCC(=O)O [D-Tyr-Val-Gly] (HELM PEPTIDE1{[dY].V.G}$$$$V2.0)
- maximal velocity relative to dansyl-Tyr-Val-Gly ([2]; comparison of Vmax): approximately 1.48 times

Molecule: O=S(=O)([O-])[O-].[Cu+2] [copper sulfate]
- effect of addition on enzymatic activity [1]: substantially increased

B1: alpha-amidating enzyme (Rattus norvegicus) (protein)
chain: FKETTRSFSNECLGTIGPVTPLDASDFALDIRMPGVTPKESDTYFCMSMRLPVDEEAFVIDFKPRASMDTVHHMLLFGCNMPSSTGSYWFCDEGTCTDKANILYAWARNAPPTRLPKGVGFRVGGETGSKYFVLQVHYGDISAFRDNHKDCSGVSVHLTRVPQPLIAGMYLMMSVDTVIPPGEKVVNADISCQYKMYPMHVFAYRVHTHHLGKVVSGYRVRNGQWTLIGRQNPQLPQAFYPVEHPVDVTFGDILAARCVFTGEGRTEATHIGGTSSDEMCNLYIMYYMEAKYALSFMTCTKNVAPDMFRTIPAEANIPIPVKPDMVMMHGHHKEAENKEKSALMQQPKQGEEEVLEQGDFYSLLSKLLGEREDVHVHKYNPTEKTESGSDLVAEIANVVQKKDLGRSDAREGAEHEEWGNAILVRDRIHRFHQLESTLRPAESRAFSFQQPGEGPWEPEPSGDFHVEEELDWPGVYLLPGQVSGVALDSKNNLVIFHRGDHVWDGNSFDSKFVYQQRGLGPIEEDTILVIDPNNAEILQSSGKNLFYLPHGLSIDTDGNYWVTDVALHQVFKLDPHSKEGPLLILGRSMQPGSDQNHFCQPTDVAVEPSTGAVFVSDGYCNSRIVQFSPSGKFVTQWGEESSGSSPRPGQFSVPHSLALVPHLDQLCVADRENGRIQCFKTDTKEFVREIKHASFGRNVFAISYIPGFLFAVNGKPYFGDQEPVQGFVMNFSSGEIIDVFKPVRKHFDMPHDIVASEDGTVYIGDAHTNTVWKFTLTEKMEHRSVKKAGIEVQEIKEAEAVVEPKVENKPTSSELQKMQEKQKLSTEPGSGVSVVLITTLLVIPVLVLLAIVMFIRWKKSRAFGDHDRKLESSSGRVLGRFRGKGSGGLNLGNFFASRKGYSRKGFDRVSTEGSDQEKDEDDGTESEEEYSAPLPKPAPSS
- Km [3]: 37 µM
- Vmax [3]: 31 pmol product/min/μl

B2: peak eluting at 190 mM NaCl: enzyme activity peak from Mono Q HR 5/5 at pH 8.0 eluting at 190 mM NaCl (protein, UniProt P14925 36-976, looked up)
Peptidylglycine …: FKETTRSFSNECLGTIGPVTPLDASDFALDIRMPGVTPKESDTYFCMSMRLPVDEEAFVIDFKPRASMDTVHHMLLFGCNMPSSTGSYWFCDEGTCTDKANILYAWARNAPPTRLPKGVGFRVGGETGSKYFVLQVHYGDISAFRDNHKDCSGVSVHLTRVPQPLIAGMYLMMSVDTVIPPGEKVVNADISCQYKMYPMHVFAYRVHTHHLGKVVSGYRVRNGQWTLIGRQNPQLPQAFYPVEHPVDVTFGDILAARCVFTGEGRTEATHIGGTSSDEMCNLYIMYYMEAKYALSFMTCTKNVAPDMFRTIPAEANIPIPVKPDMVMMHGHHKEAENKEKSALMQQPKQGEEEVLEQGDFYSLLSKLLGEREDVHVHKYNPTEKTESGSDLVAEIANVVQKKDLGRSDAREGAEHEEWGNAILVRDRIHRFHQLESTLRPAESRAFSFQQPGEGPWEPEPSGDFHVEEELDWPGVYLLPGQVSGVALDSKNNLVIFHRGDHVWDGNSFDSKFVYQQRGLGPIEEDTILVIDPNNAEILQSSGKNLFYLPHGLSIDTDGNYWVTDVALHQVFKLDPHSKEGPLLILGRSMQPGSDQNHFCQPTDVAVEPSTGAVFVSDGYCNSRIVQFSPSGKFVTQWGEESSGSSPRPGQFSVPHSLALVPHLDQLCVADRENGRIQCFKTDTKEFVREIKHASFGRNVFAISYIPGFLFAVNGKPYFGDQEPVQGFVMNFSSGEIIDVFKPVRKHFDMPHDIVASEDGTVYIGDAHTNTVWKFTLTEKMEHRSVKKAGIEVQEIKEAEAVVEPKVENKPTSSELQKMQEKQKLSTEPGSGVSVVLITTLLVIPVLVLLAIVMFIRWKKSRAFGDHDRKLESSSGRVLGRFRGKGSGGLNLGNFFASRKGYSRKGFDRVSTEGSDQEKDEDDGTESEEEYSAPLPKPAPSS
modifications: Mono Q fraction
- specific alpha-amidating activity ([4]; after Mono Q chromatography at pH 8.0, rat MTC tumor): at least 80 mU/mg protein

B3: Peak IV enzyme (CA-77): higher molecular weight form from CA-77 medium, corresponds to peak III derived from MTC tumors (protein, UniProt P14925 36-976, looked up)
Peptidylglycine …: FKETTRSFSNECLGTIGPVTPLDASDFALDIRMPGVTPKESDTYFCMSMRLPVDEEAFVIDFKPRASMDTVHHMLLFGCNMPSSTGSYWFCDEGTCTDKANILYAWARNAPPTRLPKGVGFRVGGETGSKYFVLQVHYGDISAFRDNHKDCSGVSVHLTRVPQPLIAGMYLMMSVDTVIPPGEKVVNADISCQYKMYPMHVFAYRVHTHHLGKVVSGYRVRNGQWTLIGRQNPQLPQAFYPVEHPVDVTFGDILAARCVFTGEGRTEATHIGGTSSDEMCNLYIMYYMEAKYALSFMTCTKNVAPDMFRTIPAEANIPIPVKPDMVMMHGHHKEAENKEKSALMQQPKQGEEEVLEQGDFYSLLSKLLGEREDVHVHKYNPTEKTESGSDLVAEIANVVQKKDLGRSDAREGAEHEEWGNAILVRDRIHRFHQLESTLRPAESRAFSFQQPGEGPWEPEPSGDFHVEEELDWPGVYLLPGQVSGVALDSKNNLVIFHRGDHVWDGNSFDSKFVYQQRGLGPIEEDTILVIDPNNAEILQSSGKNLFYLPHGLSIDTDGNYWVTDVALHQVFKLDPHSKEGPLLILGRSMQPGSDQNHFCQPTDVAVEPSTGAVFVSDGYCNSRIVQFSPSGKFVTQWGEESSGSSPRPGQFSVPHSLALVPHLDQLCVADRENGRIQCFKTDTKEFVREIKHASFGRNVFAISYIPGFLFAVNGKPYFGDQEPVQGFVMNFSSGEIIDVFKPVRKHFDMPHDIVASEDGTVYIGDAHTNTVWKFTLTEKMEHRSVKKAGIEVQEIKEAEAVVEPKVENKPTSSELQKMQEKQKLSTEPGSGVSVVLITTLLVIPVLVLLAIVMFIRWKKSRAFGDHDRKLESSSGRVLGRFRGKGSGGLNLGNFFASRKGYSRKGFDRVSTEGSDQEKDEDDGTESEEEYSAPLPKPAPSS
modifications: higher molecular weight form
- pH optimum [5]: 5.0-5.5
- specific activity ([4]; CA-77 media, purified enzyme, pH 7.0): approximately 1500 mU/mg protein
